Reference: patent US20110301073, “Novel DNA-binding proteins and uses thereof” (Sangamo BioSciences, Inc., published 2011)

Biological target: T1, NT-L +278 VP16 (R23570V) (Xanthomonas sp. (engineered), UniProt P14727 SEQ:1-1013)
T1 chain: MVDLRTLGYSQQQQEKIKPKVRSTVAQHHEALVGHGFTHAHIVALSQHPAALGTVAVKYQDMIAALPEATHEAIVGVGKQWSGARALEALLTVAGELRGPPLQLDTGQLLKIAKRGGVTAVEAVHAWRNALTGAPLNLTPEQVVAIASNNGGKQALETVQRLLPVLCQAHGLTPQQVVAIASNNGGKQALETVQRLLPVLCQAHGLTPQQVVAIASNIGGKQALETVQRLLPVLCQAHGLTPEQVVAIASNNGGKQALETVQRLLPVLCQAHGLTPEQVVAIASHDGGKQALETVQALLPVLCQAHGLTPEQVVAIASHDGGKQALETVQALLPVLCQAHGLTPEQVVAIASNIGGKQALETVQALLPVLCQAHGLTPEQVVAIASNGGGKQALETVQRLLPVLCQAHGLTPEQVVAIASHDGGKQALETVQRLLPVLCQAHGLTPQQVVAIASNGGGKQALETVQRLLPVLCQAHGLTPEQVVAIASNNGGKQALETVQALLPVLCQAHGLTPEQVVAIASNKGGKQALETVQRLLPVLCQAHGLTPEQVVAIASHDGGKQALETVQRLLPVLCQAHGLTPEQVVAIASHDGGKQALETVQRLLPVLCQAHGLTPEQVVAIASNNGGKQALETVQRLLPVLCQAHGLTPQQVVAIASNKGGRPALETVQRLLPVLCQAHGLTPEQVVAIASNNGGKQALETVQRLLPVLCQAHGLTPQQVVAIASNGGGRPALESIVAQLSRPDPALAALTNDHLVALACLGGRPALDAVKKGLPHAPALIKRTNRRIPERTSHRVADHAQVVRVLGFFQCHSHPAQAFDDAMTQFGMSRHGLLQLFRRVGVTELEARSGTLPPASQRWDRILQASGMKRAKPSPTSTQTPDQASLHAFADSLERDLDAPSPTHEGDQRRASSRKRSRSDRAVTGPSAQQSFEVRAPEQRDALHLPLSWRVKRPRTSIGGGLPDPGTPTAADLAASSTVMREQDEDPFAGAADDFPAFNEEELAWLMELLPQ
Test: cell_activity; luciferase reporter with 2 sites
Settings: tags: VP16

B1: NT-L target (NTF3 promoter) (dsDNA)
DNA 1: GGAGCCATCTGGCCGGGT
DNA 2: ACCCGGCCAGATGGCTCC
With B1 the activity was 74.5 fold activation.
